Target: H3K9me3 mononucleosome with one disulfide bridge between H3 I62C and H4 A33C (oxidized) (X. laevis)
Test: fluorescence polarisation

Swi6 (S. pombe HP1 protein), sequence (P40381 whole entry): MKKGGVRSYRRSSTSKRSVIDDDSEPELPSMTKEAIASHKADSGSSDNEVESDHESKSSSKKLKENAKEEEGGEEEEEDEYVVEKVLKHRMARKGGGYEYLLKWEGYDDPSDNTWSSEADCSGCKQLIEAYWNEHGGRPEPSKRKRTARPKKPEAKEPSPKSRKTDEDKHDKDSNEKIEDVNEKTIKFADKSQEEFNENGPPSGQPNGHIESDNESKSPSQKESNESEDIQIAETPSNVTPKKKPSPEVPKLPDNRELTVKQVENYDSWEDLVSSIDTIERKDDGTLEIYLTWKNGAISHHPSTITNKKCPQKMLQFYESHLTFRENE

Q: For “Swi6 (S. pombe HP1 protein) (from UniProt P40381 1-328) (natural protein)”, which Kd is on record?
A: 300 nM
